From patent US20210128704A1 (UNIVERSITY OF MIAMI, published 2021)

Target: T1, ITPR1 (inositol 1,4,5-trisphosphate receptor type 1) (UniProt Q14643 1-2758, limits assumed)
T1 construct: Endogenous protein of the transfected cells, tested by co-immunoprecipitation and western blot
Assay: co-immunoprecipitation with antibodies to the tag and western blot, HEK293 cells before and after forskolin
Source text: Overexpression of V5-Car10 and V5-CA10 inhibits ATP-induced free calcium release in vitro: ITPR1 contains functionally distinct domains, including the ‘modulatory’ domain responding to intracellular modulators such as calcium, calmodulin, ATP, and carbonic anhydrase-8 (Car8). ATP increases ITPR1-dependent calcium release by increasing the open probability of the channel in the presence of activating concentrations of IP3 and calcium. It is believed that Car8-mediated inhibition of ITPR1 activation and ATP-mediated calcium release requires binding to this modulatory domain. […] Co-immunoprecipitation of each protein with antibodies to V5 tag with ITPR1 and pITPR1 before and after forskolin stimulation of HEK293 cells was conducted.

T1 sequence (Q14643 whole entry): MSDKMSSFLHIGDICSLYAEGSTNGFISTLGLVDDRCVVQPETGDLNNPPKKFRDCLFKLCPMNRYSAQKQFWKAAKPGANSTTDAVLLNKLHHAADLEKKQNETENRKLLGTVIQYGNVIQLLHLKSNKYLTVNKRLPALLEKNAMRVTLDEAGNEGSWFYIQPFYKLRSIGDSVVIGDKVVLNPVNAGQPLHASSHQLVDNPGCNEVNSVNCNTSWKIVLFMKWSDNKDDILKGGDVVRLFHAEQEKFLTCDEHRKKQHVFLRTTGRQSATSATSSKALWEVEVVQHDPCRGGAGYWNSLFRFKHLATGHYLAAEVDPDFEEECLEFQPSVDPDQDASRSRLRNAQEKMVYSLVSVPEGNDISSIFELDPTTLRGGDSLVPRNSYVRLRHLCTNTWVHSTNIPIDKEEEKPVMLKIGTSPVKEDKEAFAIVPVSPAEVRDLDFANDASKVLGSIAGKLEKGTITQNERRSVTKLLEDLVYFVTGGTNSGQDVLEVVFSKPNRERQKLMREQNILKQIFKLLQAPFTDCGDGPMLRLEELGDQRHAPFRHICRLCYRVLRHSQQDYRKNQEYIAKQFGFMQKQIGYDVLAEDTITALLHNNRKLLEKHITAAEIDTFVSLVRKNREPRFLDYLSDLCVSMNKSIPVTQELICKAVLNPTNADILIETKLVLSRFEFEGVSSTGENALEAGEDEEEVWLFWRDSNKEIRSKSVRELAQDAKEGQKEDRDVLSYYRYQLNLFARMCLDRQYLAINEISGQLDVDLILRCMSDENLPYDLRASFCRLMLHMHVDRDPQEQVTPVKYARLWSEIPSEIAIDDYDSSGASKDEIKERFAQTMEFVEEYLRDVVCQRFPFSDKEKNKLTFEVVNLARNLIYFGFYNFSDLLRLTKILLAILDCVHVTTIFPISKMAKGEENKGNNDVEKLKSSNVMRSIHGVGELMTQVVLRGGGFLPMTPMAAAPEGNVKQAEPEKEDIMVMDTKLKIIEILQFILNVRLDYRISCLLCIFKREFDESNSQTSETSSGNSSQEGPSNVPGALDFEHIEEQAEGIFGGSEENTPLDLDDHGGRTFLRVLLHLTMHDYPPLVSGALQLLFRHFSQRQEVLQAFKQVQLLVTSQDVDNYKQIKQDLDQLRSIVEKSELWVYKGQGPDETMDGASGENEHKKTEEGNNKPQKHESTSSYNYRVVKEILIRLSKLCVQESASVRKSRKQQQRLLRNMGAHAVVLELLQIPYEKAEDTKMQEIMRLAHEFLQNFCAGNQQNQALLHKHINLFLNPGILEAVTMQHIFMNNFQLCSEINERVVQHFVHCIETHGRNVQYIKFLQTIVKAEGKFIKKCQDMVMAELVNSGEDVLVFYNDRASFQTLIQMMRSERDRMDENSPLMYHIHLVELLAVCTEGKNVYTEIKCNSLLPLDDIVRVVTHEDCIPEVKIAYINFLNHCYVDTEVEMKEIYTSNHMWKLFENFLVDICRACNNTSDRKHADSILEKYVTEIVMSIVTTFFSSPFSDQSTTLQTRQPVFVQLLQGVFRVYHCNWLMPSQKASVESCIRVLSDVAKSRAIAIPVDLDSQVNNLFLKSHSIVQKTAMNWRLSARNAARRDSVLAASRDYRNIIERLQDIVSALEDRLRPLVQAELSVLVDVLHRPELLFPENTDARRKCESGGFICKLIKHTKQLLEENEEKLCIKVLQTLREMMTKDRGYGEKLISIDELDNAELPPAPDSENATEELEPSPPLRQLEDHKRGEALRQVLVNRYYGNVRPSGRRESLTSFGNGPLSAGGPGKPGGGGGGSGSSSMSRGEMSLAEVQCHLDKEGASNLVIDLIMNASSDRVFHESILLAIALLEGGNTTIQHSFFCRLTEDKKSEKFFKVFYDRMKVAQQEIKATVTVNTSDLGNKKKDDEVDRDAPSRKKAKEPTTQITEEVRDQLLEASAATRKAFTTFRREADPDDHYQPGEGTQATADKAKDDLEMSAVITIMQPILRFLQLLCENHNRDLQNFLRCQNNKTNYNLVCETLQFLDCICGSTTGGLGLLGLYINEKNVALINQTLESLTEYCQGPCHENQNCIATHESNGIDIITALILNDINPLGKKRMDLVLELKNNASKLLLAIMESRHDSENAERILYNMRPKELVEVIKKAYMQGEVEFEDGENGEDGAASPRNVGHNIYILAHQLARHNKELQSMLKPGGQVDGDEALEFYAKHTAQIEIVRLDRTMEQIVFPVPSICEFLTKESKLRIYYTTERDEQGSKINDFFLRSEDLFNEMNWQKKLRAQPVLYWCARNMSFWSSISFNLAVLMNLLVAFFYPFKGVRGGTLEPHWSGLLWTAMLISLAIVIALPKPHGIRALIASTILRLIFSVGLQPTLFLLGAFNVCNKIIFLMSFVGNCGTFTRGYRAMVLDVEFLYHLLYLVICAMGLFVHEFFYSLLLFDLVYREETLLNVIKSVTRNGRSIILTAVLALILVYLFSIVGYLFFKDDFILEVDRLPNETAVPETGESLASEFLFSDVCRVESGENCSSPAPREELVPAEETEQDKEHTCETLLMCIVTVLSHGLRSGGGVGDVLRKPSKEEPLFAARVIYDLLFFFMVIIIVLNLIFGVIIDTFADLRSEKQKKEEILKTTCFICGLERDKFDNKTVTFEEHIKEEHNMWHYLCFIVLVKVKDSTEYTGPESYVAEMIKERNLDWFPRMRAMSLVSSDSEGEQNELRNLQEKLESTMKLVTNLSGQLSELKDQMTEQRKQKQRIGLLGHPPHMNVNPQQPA

B1: CA8-204 (carbonic anhydrase 8 fragment, alternative transcript product) (other, not shown: small tags and cut ends)
chain: MADLSFIEDTVAFPEKEEDEEEEEEGVEWGYEEGVEWGLVFPDANGEYQSPINLNSREARYDPSLLDVRLSPNYVVCRDCEVTNDGHTIQVILKSKSVLSGGPLPQGHEFELYEVRFHWGRENQRGSEHTVNFKAFPMEVRITNHLVKILFSE
notes: Expressed in HEK293 cells; also called CA8 fragment
- binding result: no binding
